This note sets out measurements from the supplement of paper PMC7877785.

The data set can be described thus: self-splicing fitness, log relative to wild type (ln ratio); higher = more splicing; Tetrahymena group I intron in knt gene, E. coli kanamycin selection, DiMSum; sequences stand for … in CUCUCU…GGAGGGAAAAGUUAUCAGGCAUGCACCUGGUAGCUAGUCUUUAAACCAAUAGAUUGCAUCGGUUUAAAAGGCAAGACCGUCAAAUUGCGGGAAAGGGGUCAACAGCCGUUCAGUACCAAGUCUCAGGGGAAACUUUGAGAUGGCCUUGCAAAGGGUAUGGUAAUAAGCUGACGGACAUGGUCCUAACCACGCAGCCAAGUCCUAAGUCAACAGAUCUUCUGUUGAUAUGGAUGCAGUUCACAGACUAAAUGUCGGUCGGGGAAGAUGUAUUCUUCUCAUAAGAUAUAGUCGGACCUCUCCUUAAUGGGAGCUAGCGGAUGAAGUGAUGCAACACUGGAGCCGCUGGGAACUAAUUUGUAUGCGAAAGUAUAUUGAUUAGUUUUGGAGUACUCGUGGUCG
An outline of the steps:
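Library with all eight P1ex-region intron nucleotides randomised, intron inside the knt kanamycin-resistance gene on pET-22b(+), in E. coli BL21(DE3). Cells grew overnight at 37°C or 30°C on LB agar with or without 25 μg/mL kanamycin (plus 100 μg/mL carbenicillin, 50 μM IPTG, 0.2% rhamnose), in six replicate transformations. Pooled colonies were amplicon-sequenced on Illumina HiSeq 2500. DiMSum fitness is the error-weighted combination of wild-type-normalised replicate fold changes, kanamycin versus none.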

± gives the uncertainty stated by the source.

Turning to CGGAAGCAAUAUUACGAGGA, the “self-splicing fitness (ln)” value (30 °C) was -1.95 ± 0.2 and the “self-splicing fitness (ln)” value (37 °C) is -1.4 ± 0.19.

On to CGGAAGCAAUAUUACGCACU, for which the “self-splicing fitness (ln)” value reads like this: (30 °C) -2.24 ± 0.13; (37 °C) -0.396 ± 0.11.

For CGGAAGCAAUAUUACGCAUG, the “self-splicing fitness (ln)” value is, setting by setting: (30 °C) -1.53 ± 0.13; (37 °C) -0.32 ± 0.11. Take CGGAAGCAAUAUUACGCCCC: the “self-splicing fitness (ln)” value (30 °C) was -1.49 ± 0.39. For the sequence CGGAAGCAAUAUUACGCUUC, under “30 °C”, the “self-splicing fitness (ln)” value was -3.81 ± 0.35.

Take CGGAAGCAAUAUUACGGAGU: the “self-splicing fitness (ln)” value by setting is: (30 °C) -4.49 ± 0.39; (37 °C) -2.12 ± 0.2. In the same order, the values of CGGAAGCAAUAUUACGGCAA are -2.89 ± 0.22 and -1.41 ± 0.18.

Regarding CGGAAGCAAUAUUACGGCUU, the “self-splicing fitness (ln)” value is, setting by setting: (30 °C) -3.34 ± 0.3; (37 °C) -2.75 ± 0.36. CGGAAGCAAUAUUACGGUUG: the “self-splicing fitness (ln)” value runs as follows: (30 °C) -0.585 ± 0.059; (37 °C) -0.061 ± 0.085. In the same order, the values of CGGAAGCAAUAUUACGUAGC are -2.64 ± 0.38 and -3.47 ± 0.46. Turning to CGGAAGCAAUAUUACGUCAU, the “self-splicing fitness (ln)” value reads like this: (30 °C) -3.78 ± 0.16; (37 °C) -3.33 ± 0.2.

As for CGGAAGCAAUAUUACGUUUU, the “self-splicing fitness (ln)” value (30 °C) is -3.64 ± 0.23 and the “self-splicing fitness (ln)” value (37 °C) is -2.95 ± 0.18.

As for CGGCAGCAAUAUUACGAAUC, the “self-splicing fitness (ln)” value by setting is: (30 °C) -4.16 ± 0.39; (37 °C) -2.23 ± 0.34. In the same order, the values of CGGCAGCAAUAUUACGAAUU are -3 ± 0.23 and -2.6 ± 0.33.

As for CGGCAGCAAUAUUACGACGC, the “self-splicing fitness (ln)” value runs as follows: (30 °C) -3.45 ± 0.28; (37 °C) -0.355 ± 0.21.

As for CGGCAGCAAUAUUACGAGCA, the “self-splicing fitness (ln)” value by setting is: (30 °C) -2.99 ± 0.24; (37 °C) -0.81 ± 0.13. The corresponding values for CGGCAGCAAUAUUACGAUAU are -4.27 ± 0.23 and -1.51 ± 0.098. The corresponding values for CGGCAGCAAUAUUACGCAAG are -1.93 ± 0.13 and -1.01 ± 0.16.

CGGCAGCAAUAUUACGCAUA: the “self-splicing fitness (ln)” value (30 °C) was -2.08 ± 0.21 and the “self-splicing fitness (ln)” value (37 °C) is -1.03 ± 0.13. Take CGGCAGCAAUAUUACGCGGG: the “self-splicing fitness (ln)” value (30 °C) is -2.12 ± 0.12 and the “self-splicing fitness (ln)” value (37 °C) was -1.42 ± 0.13. For the sequence CGGCAGCAAUAUUACGCUCU, the “self-splicing fitness (ln)” value is, setting by setting: (30 °C) -2.11 ± 0.14; (37 °C) -0.612 ± 0.16.

For CGGCAGCAAUAUUACGGCAU, the “self-splicing fitness (ln)” value by setting is: (30 °C) -0.976 ± 0.088; (37 °C) -0.0577 ± 0.1.

CGGCAGCAAUAUUACGGGGG: the “self-splicing fitness (ln)” value by setting is: (30 °C) -3 ± 0.13; (37 °C) -1.86 ± 0.16. On to CGGCAGCAAUAUUACGGGUU, for which the “self-splicing fitness (ln)” value (30 °C) is -4.26 ± 0.28 and the “self-splicing fitness (ln)” value (37 °C) was -2.87 ± 0.33. Regarding CGGCAGCAAUAUUACGGUAC, the “self-splicing fitness (ln)” value is -3.61 ± 0.49 (30 °C) and -2.9 ± 0.23 (37 °C). The corresponding values for CGGCAGCAAUAUUACGUACA are -1.26 ± 0.11 and -0.624 ± 0.14. Take CGGCAGCAAUAUUACGUCCG: the “self-splicing fitness (ln)” value (30 °C) is -2.03 ± 0.12 and the “self-splicing fitness (ln)” value (37 °C) is -2.92 ± 0.24. The corresponding values for CGGCAGCAAUAUUACGUCUA are -0.607 ± 0.071 and 0.443 ± 0.084.

With CGGCAGCAAUAUUACGUCUU, the “self-splicing fitness (ln)” value (30 °C) is -1.09 ± 0.066 and the “self-splicing fitness (ln)” value (37 °C) stood at 0.328 ± 0.086. In the case of CGGCAGCAAUAUUACGUGUA, the “self-splicing fitness (ln)” value reads like this: (30 °C) -3.77 ± 0.25; (37 °C) -2.21 ± 0.14. CGGCAGCAAUAUUACGUUCA: the “self-splicing fitness (ln)” value (30 °C) was -0.358 ± 0.068 and the “self-splicing fitness (ln)” value (37 °C) stood at 0.0795 ± 0.082. As to CGGCAGCAAUAUUACGUUUA, the “self-splicing fitness (ln)” value is, setting by setting: (30 °C) -2.06 ± 0.12; (37 °C) -1.53 ± 0.13. The corresponding values for CGGCAGCAAUAUUACGUUUC are -3.29 ± 0.17 and -2.36 ± 0.19. With CGGGAGCAAUAUUACGAACU, the “self-splicing fitness (ln)” value (37 °C) is -1.25 ± 0.45. As to CGGGAGCAAUAUUACGAAGG, the “self-splicing fitness (ln)” value is -1.9 ± 0.39 (30 °C) and -1.74 ± 0.41 (37 °C). Consider CGGGAGCAAUAUUACGACUU, for which the “self-splicing fitness (ln)” value by setting is: (30 °C) -1.58 ± 0.37; (37 °C) -1.83 ± 0.49. CGGGAGCAAUAUUACGAGUG: the “self-splicing fitness (ln)” value reads like this: (30 °C) -3.61 ± 0.24; (37 °C) -1.61 ± 0.2. The corresponding values for CGGGAGCAAUAUUACGAUAA are -3.16 ± 0.25 and -2.57 ± 0.39.
